Laboratory results from patent US20120087858A1 (AbbVie / Abbott, published 2012).

T1: Recombinant Human SOST (human, UniProt Q9BQB4 24-213)
T1 construct: Biacore reagent from R&D Systems; the Wnt-1/luciferase assay used Human Sclerostin (Abbott PR-1261069); also called Sclerostin; Human Sclerostin
T1 sequence (looked up): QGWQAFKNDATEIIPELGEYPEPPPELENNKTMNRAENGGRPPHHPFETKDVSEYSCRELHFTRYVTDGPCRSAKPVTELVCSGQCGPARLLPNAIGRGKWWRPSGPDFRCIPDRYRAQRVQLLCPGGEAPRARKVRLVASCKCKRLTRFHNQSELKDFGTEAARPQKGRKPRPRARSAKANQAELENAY

B1: DVD1475 (bispecific antibody, human IgG1, kappa)
heavy: not shown
light: DIQMTQSPSSLSASVGDRVTITCRASQGIRIDLGWYQQKPGKAPKRLIYAASTLQSGVPSRFSGSGSGTEFIFTISSLQPEDFASYYCLQHKSYPLTFGGGTKVEIKRTVAAPSVFIFPPDVQMIQSPSSLSASLGDIVTMTCQASQGTSINLNWFQQKPGKAPKLLIYGSSNLEDGVPSRFSGSRYGTDFTLTISSLEDEDLATYFCLQHSYLPYTFGGGTKLEIKRTVAAPSVFIFPPSDEQLKSGTASVVCLLNNFYPREAKVQWKVDNALQSGNSQESVTEQDSKDSTYSLSSTLTLSKADYEKHKVYACEVTHQGLSSPVTKSFNRGEC
notes: DVD-Ig; linker set 2; also called DVD1475H; DVD1475L
B2: AB213 (antibody, V domains shown)
VH: QVQLKESGPGLVAPSQSLSITCTVSGFSLTDYGVNWVRQPPGKGLEWLGMIWGDGSTDYDSTLKSRLSISKDNSKSQIFLKMNSLQTDDTARYYCAREWHHGPVAYWGQGTLVTVSA
VL: DIVMTQSHKFMSTTVGDRVSITCKASQAVSSAVAWYQQKPGQSPKLLIYWASTRHTGVPDRFTGSGSVTDFTLTIHNLQAEDLALYYCQQHYSTPFTFGSGTKLEIKR
notes: Parent antibody
B3: AB217 (antibody, V domains shown)
VH: QVQLVESGGGVVQPGRSLRLSCAASGFTFSSYDMHWVRQAPGKGLEWVAVIWSDGSIKYYADSVKGRFTISRDNSKNTLYLQMNSLRAEDTAVYYCAREVESAMGGFYYNGMDVWGQGTTVTVSS
VL: DIQMTQSPSSLSASVGDRVTITCRASQGIRIDLGWYQQKPGKAPKRLIYAASTLQSGVPSRFSGSGSGTEFIFTISSLQPEDFASYYCLQHKSYPLTFGGGTKVEIKR
notes: Parent antibody
B4: AB218 (antibody, V domains shown)
VH: EVQLVESGGGLIQPGGSLRLSCAASGFTVSRNYMSWVRQAPGKGLEWVSVIYSGDRTYYADSVKGRFTISRDNSKNTLYLQMNSLRAEDTAVYYCARGEGGFDYWGQGTLVTVSS
VL: EIVMTQSPATLSVSPGERATLSCRASQSVSSNLAWYQQKPGQAPRLLIHGASIRATGLPARFSGSGSGTEFTLTISSLQSEDFAVYYCQQYNYWWTFGQGTKVEIKR
notes: Parent antibody
B5: AB022 (antibody, V domains shown)
VH: EVQLQQSGPELVTPGASVKISCKASGYTFTDHYMSWVKQSHGKSLEWIGDINPYSGETTYNQKFKGTATLTVDKSSSIAYMEIRGLTSEDSAVYYCARDDYDASPFAYWGQGTLVTVSA
VL: DVQMIQSPSSLSASLGDIVTMTCQASQGTSINLNWFQQKPGKAPKLLIYGSSNLEDGVPSRFSGSRYGTDFTLTISSLEDEDLATYFCLQHSYLPYTFGGGTKLEIKR
notes: Parent antibody; also called SOST parent antibody
B6: DVD1474 (bispecific antibody, human IgG1, kappa)
heavy: not shown
light: DVLMTQTPLSLPVTPGEPASISCTSSQNIVHSNGNTYLEWYLQKPGQSPQLLIYKVSNRFSGVPDRFSGSGSGTDFTLKISRVEAEDVGVYYCFQVSHVPYTFGGGTKVEIKRTVAAPSVFIFPPDIQMTQSPSSLSASVGDRVTITCRASQGIRIDLGWYQQKPGKAPKRLIYAASTLQSGVPSRFSGSGSGTEFIFTISSLQPEDFASYYCLQHKSYPLTFGGGTKVEIKRTVAAPSVFIFPPSDEQLKSGTASVVCLLNNFYPREAKVQWKVDNALQSGNSQESVTEQDSKDSTYSLSSTLTLSKADYEKHKVYACEVTHQGLSSPVTKSFNRGEC
B7: DVD1476 (bispecific antibody, human IgG1, kappa)
heavy: not shown
light: DVQMIQSPSSLSASLGDIVTMTCQASQGTSINLNWFQQKPGKAPKLLIYGSSNLEDGVPSRFSGSRYGTDFTLTISSLEDEDLATYFCLQHSYLPYTFGGGTKLEIKRTVAAPSVFIFPPDIQMTQSPSSLSASVGDRVTITCRASQGIRIDLGWYQQKPGKAPKRLIYAASTLQSGVPSRFSGSGSGTEFIFTISSLQPEDFASYYCLQHKSYPLTFGGGTKVEIKRTVAAPSVFIFPPSDEQLKSGTASVVCLLNNFYPREAKVQWKVDNALQSGNSQESVTEQDSKDSTYSLSSTLTLSKADYEKHKVYACEVTHQGLSSPVTKSFNRGEC
B8: DVD1496 (bispecific antibody, human IgG1, kappa)
heavy: not shown
light: DVQMIQSPSSLSASLGDIVTMTCQASQGTSINLNWFQQKPGKAPKLLIYGSSNLEDGVPSRFSGSRYGTDFTLTISSLEDEDLATYFCLQHSYLPYTFGGGTKLEIKRTVAAPDIVMTQSHKFMSTTVGDRVSITCKASQAVSSAVAWYQQKPGQSPKLLIYWASTRHTGVPDRFTGSGSVTDFTLTIHNLQAEDLALYYCQQHYSTPFTFGSGTKLEIKRTVAAPSVFIFPPSDEQLKSGTASVVCLLNNFYPREAKVQWKVDNALQSGNSQESVTEQDSKDSTYSLSSTLTLSKADYEKHKVYACEVTHQGLSSPVTKSFNRGEC
B9: DVD1507 (bispecific antibody, human IgG1, kappa)
heavy: not shown
light: DIVMTQSHKFMSTTVGDRVSITCKASQAVSSAVAWYQQKPGQSPKLLIYWASTRHTGVPDRFTGSGSVTDFTLTIHNLQAEDLALYYCQQHYSTPFTFGSGTKLEIKRTVAAPDVVMTQTPLSLPVSLGDQASISCTSGQSLVHINGNTYLHWYLQKPGQSPKLLIYKVSNLFSGVPDRFSGSGSGTDFTLKISRVEAEDLGVYFCSQSTHFPFTFGTGTKLEIKRTVAAPSVFIFPPSDEQLKSGTASVVCLLNNFYPREAKVQWKVDNALQSGNSQESVTEQDSKDSTYSLSSTLTLSKADYEKHKVYACEVTHQGLSSPVTKSFNRGEC
B10: DVD1516 (bispecific antibody, human IgG1, kappa)
heavy: not shown
light: DVLMTQTPLSLPVTPGEPASISCTSSQNIVHSNGNTYLEWYLQKPGQSPQLLIYKVSNRFSGVPDRFSGSGSGTDFTLKISRVEAEDVGVYYCFQVSHVPYTFGGGTKVEIKRTVAAPDIQMTQSPSSLSASVGDRVTITCRASQGIRIDLGWYQQKPGKAPKRLIYAASTLQSGVPSRFSGSGSGTEFIFTISSLQPEDFASYYCLQHKSYPLTFGGGTKVEIKRTVAAPSVFIFPPSDEQLKSGTASVVCLLNNFYPREAKVQWKVDNALQSGNSQESVTEQDSKDSTYSLSSTLTLSKADYEKHKVYACEVTHQGLSSPVTKSFNRGEC
B11: DVD1518 (bispecific antibody, human IgG1, kappa)
heavy: not shown
light: DVQMIQSPSSLSASLGDIVTMTCQASQGTSINLNWFQQKPGKAPKLLIYGSSNLEDGVPSRFSGSRYGTDFTLTISSLEDEDLATYFCLQHSYLPYTFGGGTKLEIKRTVAAPDIQMTQSPSSLSASVGDRVTITCRASQGIRIDLGWYQQKPGKAPKRLIYAASTLQSGVPSRFSGSGSGTEFIFTISSLQPEDFASYYCLQHKSYPLTFGGGTKVEIKRTVAAPSVFIFPPSDEQLKSGTASVVCLLNNFYPREAKVQWKVDNALQSGNSQESVTEQDSKDSTYSLSSTLTLSKADYEKHKVYACEVTHQGLSSPVTKSFNRGEC
B12: DVD1522 (bispecific antibody, human IgG1, kappa)
heavy: not shown
light: DVVMTQTPLSLPVSLGDQASISCTSGQSLVHINGNTYLHWYLQKPGQSPKLLIYKVSNLFSGVPDRFSGSGSGTDFTLKISRVEAEDLGVYFCSQSTHFPFTFGTGTKLEIKRTVAAPDIQMTQSPSSLSASVGDRVTITCRASQGIRIDLGWYQQKPGKAPKRLIYAASTLQSGVPSRFSGSGSGTEFIFTISSLQPEDFASYYCLQHKSYPLTFGGGTKVEIKRTVAAPSVFIFPPSDEQLKSGTASVVCLLNNFYPREAKVQWKVDNALQSGNSQESVTEQDSKDSTYSLSSTLTLSKADYEKHKVYACEVTHQGLSSPVTKSFNRGEC
B13: DVD1448 (bispecific antibody, human IgG1, kappa)
heavy: not shown
light: DVLMTQTPLSLPVTPGEPASISCTSSQNIVHSNGNTYLEWYLQKPGQSPQLLIYKVSNRFSGVPDRFSGSGSGTDFTLKISRVEAEDVGVYYCFQVSHVPYTFGGGTKVEIKRTVAAPSVFIFPPDIVMTQSHKFMSTTVGDRVSITCKASQAVSSAVAWYQQKPGQSPKLLIYWASTRHTGVPDRFTGSGSVTDFTLTIHNLQAEDLALYYCQQHYSTPFTFGSGTKLEIKRTVAAPSVFIFPPSDEQLKSGTASVVCLLNNFYPREAKVQWKVDNALQSGNSQESVTEQDSKDSTYSLSSTLTLSKADYEKHKVYACEVTHQGLSSPVTKSFNRGEC

Molecular target: T2, Recombinant Human TNF-α/TNFSF1A (human, UniProt P01375 77-233)
T2 construct: Bought reagent; The same protein name (huTNFα) is used in the L929 neutralization assay; also called huTNFα
Test: Biacore SPR
Experimental: (§1) The BIACORE assay (Biacore, Inc, Piscataway, N.J.) determines the affinity of antibodies or DVD-Ig with kinetic measurements of on-rate and off-rate constants. Binding of antibodies or DVD-Ig to a target antigen (for example, a purified recombinant target antigen) is determined by surface plasmon resonance-based measurements with a Biacore® 1000 or 3000 instrument (Biacore® AB, Uppsala, Sweden) using running HBS-EP (10 mM HEPES [pH 7.4], 150 mM NaCl, 3 mM EDTA, and 0.005% surfactant P20) at 25° C. All chemicals are obtained from Biacore® AB (Uppsala, Sweden) or otherwise from a different source as described in the text. For example, approximately 5000 RU of goat anti-mouse IgG, (Fcγ), fragment specific polyclonal antibody (Pierce Biotechnology Inc, Rockford, Ill.) diluted in 10 mM sodium acetate (pH 4.5) is directly immobilized across a CMS research grade biosensor chip using a standard amine coupling kit according to manufacturer's instructions and procedures at 25 μg/ml. Unreacted moieties on the biosensor surface are blocked with ethanolamine. Modified carboxymethyl dextran surface in flowcell 2 and 4 is used as a reaction surface. Unmodified carboxymethyl dextran without goat anti-mouse IgG in flow cell 1 and 3 is used as the reference surface. For kinetic analysis, rate equations derived from the 1:1 Langmuir binding model are fitted simultaneously to association and dissociation phases of all eight injections (using global fit analysis) with the use of Biaevaluation 4.0.1 software. Purified antibodies or DVD-Ig are diluted in HEPES-buffered saline for capture across goat anti-mouse IgG specific reaction surfaces. Antibodies or DVD-Ig to be captured as a ligand (25 μg/ml) are injected over reaction matrices at a flow rate of 5 μl/min. The association and dissociation rate constants, kₒₙ (M⁻¹s⁻) and koff(s⁻¹) are determined under a continuous flow rate of 25 μl/min. Rate constants are derived by making kinetic binding measurements at different antigen concentrations ranging from 10-200 nM. The equilibrium dissociation constant (M) of the reaction between antibodies or DVD-Igs and the target antigen is then calculated from the kinetic rate constants by the following formula: KD=koff/kₒₙ. Binding is recorded as a function of time and kinetic rate constants are calculated.

T2 sequence (P01375 77-233 limits assumed): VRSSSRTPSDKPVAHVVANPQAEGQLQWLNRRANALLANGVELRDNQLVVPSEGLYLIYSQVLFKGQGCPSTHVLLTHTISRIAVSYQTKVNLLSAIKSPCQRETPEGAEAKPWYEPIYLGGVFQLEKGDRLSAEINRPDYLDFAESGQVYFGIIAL

| Binder | Kd [nM] | koff [s⁻¹] | kon [M⁻¹ s⁻¹] |
| --- | --- | --- | --- |
| B1 | 0.013 | 3.6e-05 | 2.7e+06 |
| B2 | 0.0335 | 0.000108 | 3.23e+06 |
| B3 | 0.0272 | 5.04e-05 | 1.85e+06 |
| B4 | 0.0288 | 5.15e-05 | 1.79e+06 |

Molecular target: T1, Recombinant Human SOST
Test: Biacore SPR
Experimental: as §1

| Binder | Kd [nM] | koff [s⁻¹] | kon [M⁻¹ s⁻¹] |
| --- | --- | --- | --- |
| B1 | 0.9 | 0.00073 | 810000 |
| B5 | 0.0408 | 0.000396 | 9.68e+06 |

Molecular target: T2, Recombinant Human TNF-α/TNFSF1A
Test: cell-based or functional assay

| Binder | TNFα Neutralization Assay EC50 (L929 cells) [nM] |
| --- | --- |
| B6 | 0.273 |
| B1 | 0.002 |
| B7 | 0.139 |
| B2 | 0.124 |
| B8 | 0.085 |
| B3 | 0.0762 |
| B9 | 0.133 |
| B10 | 8.71 |
| B11 | 0.89 |
| B12 | 4.18 |
| B4 | 0.045 |
| B13 | 1.39 |
